According to the supplement of paper PMC5998384:

Columns and labels:
[1] = tested on: HeLa Kyoto; experiment: solubility in G1/S (NP-40 vs SDS abundance) (log2 ratio); higher = more soluble; details: cell cycle stage: G1/S
[2] = tested on: HeLa Kyoto; experiment: solubility change mitosis vs G1/S (difference of NP-40 vs SDS log2 ratios) (log2 ratio difference); higher = more soluble in mitosis
[3] = tested on: HeLa Kyoto; experiment: melting temperature (median over replicates), in situ; higher = more thermally stable
[4] = tested on: HeLa Kyoto; experiment: thermal stability score vs G1/S (z-score of summed log2 fold changes over temperatures); higher = more thermally stable than in G1/S
[5] = cell cycle stage: early G1 (4.5 h after nocodazole release)
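Wherever melting temperature (median over replicates), in situ is given: HeLa Kyoto cells synchronized by double thymidine or nocodazole block, proteins quantified by TMT10plex mass spectrometry, three independent biological replicates.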
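Wherever solubility change mitosis vs G1/S (difference of NP-40 vs SDS log2 ratios) is given: synchronized HeLa Kyoto cells (double thymidine block for G1/S, nocodazole release for mitosis), protein amounts in NP-40 versus SDS lysates quantified by mass spectrometry, three biological replicates.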
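Wherever solubility in G1/S (NP-40 vs SDS abundance) is given: HeLa Kyoto cells arrested at G1/S by double thymidine block, proteins quantified by TMT10plex mass spectrometry in mild NP-40 versus SDS extracts, three biological replicates.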
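Wherever thermal stability score vs G1/S (z-score of summed log2 fold changes over temperatures) is given: synchronized HeLa Kyoto cells, proteins quantified by TMT10plex mass spectrometry, three biological replicates, mitosis taken 0.5 h after nocodazole release, G1/S directly after double thymidine block.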

| Substance | solubility in G1/S (log2) [1] | solubility change mitosis (log2) [2] | melting temperature ([3]; cell cycle stage: G1/S) [°C] | melting temperature ([3]; cell cycle stage: mitosis) [°C] | thermal stability score [4, 5] | thermal stability score ([4]; cell cycle stage: mitosis) |
| --- | --- | --- | --- | --- | --- | --- |
| MKKFFDSRREQGGSGLGSGSSGGGGSTSGLGSGYIGRVFGIGRQQVTVDEVLAEGGFAIVFLVRTSNGMKCALKRMFVNNEHDLQVCKREIQIMRDLSGHKNIVGYIDSSINNVSSGDVWEVLILMDFCRGGQVVNLMNQRLQTGFTENEVLQIFCDTCEAVARLHQCKTPIIHRDLKVENILLHDRGHYVLCDFGSATNKFQNPQTEGVNAVEDEIKKYTTLSYRAPEMVNLYSGKIITTKADIWALGCLLYKLCYFTLPFGESQVAICDGNFTIPDNSRYSQDMHCLIRYMLEPDPDKRPDIYQVSYFSFKLLKKECPIPNVQNSPIPAKLPEPVKASEAAAKKTQPKARLTDPIPTTETSIAPRQRPKAGQTQPNPGILPIQPALTPRKRATVQPPPQAAGSSNQPGLLASVPQPKPQAPPSQPLPQTQAKQPQAPPTPQQTPSTQAQGLPAQAQATPQHQQQLFLKQQQQQQQPPPAQQQPAGTFYQQQQAQTQQFQAVHPATQKPAIAQFPVVSQGGSQQQLMQNFYQQQQQQQQQQQQQQLATALHQQQLMTQQAALQQKPTMAAGQQPQPQPAAAPQPAPAQEPAIQAPVRQQPKVQTTPPPAVQGQKVGSLTPPSSPKTQRAGHRRILSDVTHSAVFGVPASKSTQLLQAAAAEASLNKSKSATTTPSGSPRTSQQNVYNPSEGSTWNPFDDDNFSKLTAEELLNKDFAKLGEGKHPEKLGGSAESLIPGFQSTQGDAFATTSFSAGTAEKRKGGQTVDSGLPLLSVSDPFIPLQVPDAPEKLIEGLKSPDTSLLLPDLLPMTDPFGSTSDAVIEKADVAVESLIPGLEPPVPQRLPSQTESVTSNRTDSLTGEDSLLDCSLLSNPTTDLLEEFAPTAISAPVHKAAEDSNLISGFDVPEGSDKVAEDEFDPIPVLITKNPQGGHSRNSSGSSESSLPNLARSLLLVDQLIDL [AAK1] | 0.192 | -0.0894 | 50.9 | 51.8 | 0.691 | 0.746 |
| MPNSEPASLLELFNSIATQGELVRSLKAGNASKDEIDSAVKMLVSLKMSYKAAAGEDYKADCPPGNPAPTSNHGPDATEAEEDFVDPWTVQTSSAKGIDYDKLIVRFGSSKIDKELINRIERATGQRPHHFLRRGIFFSHRDMNQVLDAYENKKPFYLYTGRGPSSEAMHVGHLIPFIFTKWLQDVFNVPLVIQMTDDEKYLWKDLTLDQAYSYAVENAKDIIACGFDINKTFIFSDLDYMGMSSGFYKNVVKIQKHVTFNQVKGIFGFTDSDCIGKISFPAIQAAPSFSNSFPQIFRDRTDIQCLIPCAIDQDPYFRMTRDVAPRIGYPKPALLHSTFFPALQGAQTKMSASDPNSSIFLTDTAKQIKTKVNKHAFSGGRDTIEEHRQFGGNCDVDVSFMYLTFFLEDDDKLEQIRKDYTSGAMLTGELKKALIEVLQPLIAEHQARRKEVTDEIVKEFMTPRKLSFDFQ [WARS] | 0.127 | -0.199 | 56.7 | 56.3 | -0.453 | -0.825 |
| MAAASPLRDCQAWKDARLPLSTTSNEACKLFDATLTQYVKWTNDKSLGGIEGCLSKLKAADPTFVMGHAMATGLVLIGTGSSVKLDKELDLAVKTMVEISRTQPLTRREQLHVSAVETFANGNFPKACELWEQILQDHPTDMLALKFSHDAYFYLGYQEQMRDSVARIYPFWTPDIPLSSYVKGIYSFGLMETNFYDQAEKLAKEALSINPTDAWSVHTVAHIHEMKAEIKDGLEFMQHSETFWKDSDMLACHNYWHWALYLIEKGEYEAALTIYDTHILPSLQANDAMLDVVDSCSMLYRLQMEGVSVGQRWQDVLPVARKHSRDHILLFNDAHFLMASLGAHDPQTTQELLTTLRDASESPGENCQHLLARDVGLPLCQALVEAEDGNPDRVLELLLPIRYRIVQLGGSNAQRDVFNQLLIHAALNCTSSVHKNVARSLLMERDALKPNSPLTERLIRKAATVHLMQ [TTC38] | 0.319 | -0.0718 | 53.1 | 53.1 | -0.435 | -0.408 |
| MAASVAAAARRLRRAIRRSPAWRGLSHRPLSSEPPAAKASAVRAAFLNFFRDRHGHRLVPSASVRPRGDPSLLFVNAGMNQFKPIFLGTVDPRSEMAGFRRVANSQKCVRAGGHHNDLEDVGRDLSHHTFFEMLGNWAFGGEYFKEEACNMAWELLTQVYGIPEERLWISYFDGDPKAGLDPDLETRDIWLSLGVPASRVLSFGPQENFWEMGDTGPCGPCTEIHYDLAGGVGAPQLVELWNLVFMQHNREADGSLQPLPQRHVDTGMGLERLVAVLQGKHSTYDTDLFSPLLNAIQQGCRAPPYLGRVGVADEGRTDTAYRVVADHIRTLSVCISDGIFPGMSGPPLVLRRILRRAVRFSMEILKAPPGFLGSLVPVVVETLGDAYPELQRNSAQIANLVSEDEAAFLASLERGRRIIDRTLRTLGPSDMFPAEVAWSLSLCGDLGLPLDMVELMLEEKGVQLDSAGLERLAQEEAQHRARQAEPVQKQGLWLDVHALGELQRQGVPPTDDSPKYNYSLRPSGSYEFGTCEAQVLQLYTEDGTAVASVGKGQRCGLLLDRTNFYAEQGGQASDRGYLVRAGQEDVLFPVARAQVCGGFILHEAVAPECLRLGDQVQLHVDEAWRLGCMAKHTATHLLNWALRQTLGPGTEQQGSHLNPEQLRLDVTTQTPLTPEQLRAVENTVQEAVGQDEAVYMEEVPLALTAQVPGLRSLDEVYPDPVRVVSVGVPVAHALDPASQAALQTSVELCCGTHLLRTGAVGDLVIIGDRQLSKGTTRLLAVTGEQAQQARELGQSLAQEVKAATERLSLGSRDVAEALRLSKDIGRLIEAVETAVMPQWQRRELLATVKMLQRRANTAIRKLQMGQAAKKTQELLERHSKGPLIVDTVSAESLSVLVKVVRQLCEQAPSTSVLLLSPQPMGKVLCACQVAQGAMPTFTAEAWALAVCSHMGGKAWGSRVVAQGTGSTTDLEAALSIAQTYALSQL [AARS2] | -0.0312 | -0.0878 | 49.9 | 50 | -0.609 | 0.833 |
| SRGAP1 | 0.2 | -0.1 | 50.5 | 51.2 | 0.466 | 0.773 |
| MAAAEPSPRRVGFVGAGRMAGAIAQGLIRAGKVEAQHILASAPTDRNLCHFQALGCRTTHSNQEVLQSCLLVIFATKPHVLPAVLAEVAPVVTTEHILVSVAAGVSLSTLEELLPPNTRVLRVLPNLPCVVQEGAIVMARGRHVGSSETKLLQHLLEACGRCEEVPEAYVDIHTGLSGSGVAFVCAFSEALAEGAVKMGMPSSLAHRIAAQTLLGTAKMLLHEGQHPAQLRSDVCTPGGTTIYGLHALEQGGLRAATMSAVEAATCRAKELSRK [PYCRL] | 0.155 | 0.0528 | 53.5 | 55.3 | -1.28 | -1.85 |
| MKRPKLKKASKRMTCHKRYKIQKKVREHHRKLRKEAKKRGHKKPRKDPGVPNSAPFKEALLREAELRKQRLEELKQQQKLDRQKELEKKRKLETNPDIKPSNVEPMEKEFGLCKTENKAKSGKQNSKKLYCQELKKVIEASDVVLEVLDARDPLGCRCPQVEEAIVQSGQKKLVLILNKSDLVPKENLESWLNYLKKELPTVVFRASTKPKDKGKITKRVKAKKNAAPFRSEVCFGKEGLWKLLGGFQETCSKAIRVGVIGFPNVGKSSIINSLKQEQMCNVGVSMGLTRSMQVVPLDKQITIIDSPSFIVSPLNSSSALALRSPASIEVVKPMEAASAILSQADARQVVLKYTVPGYRNSLEFFTVLAQRRGMHQKGGIPNVEGAAKLLWSEWTGASLAYYCHPPTSWTPPPYFNESIVVDMKSGFNLEELEKNNAQSIRAIKGPHLANSILFQSSGLTNGIIEEKDIHEELPKRKERKQEEREDDKDSDQETVDEEVDENSSGMFAAEETGEALSEETTAGEQSTRSFILDKIIEEDDAYDFSTDYV [GNL3] | -1.72 | 0.867 | 45.3 | 50.2 | 5.07 | 8.85 |
| MALYQRWRCLRLQGLQACRLHTAVVSTPPRWLAERLGLFEELWAAQVKRLASMAQKEPRTIKISLPGGQKIDAVAWNTTPYQLARQISSTLADTAVAAQVNGEPYDLERPLETDSDLRFLTFDSPEGKAVFWHSSTHVLGAAAEQFLGAVLCRGPSTEYGFYHDFFLGKERTIRGSELPVLERICQELTAAARPFRRLEASRDQLRQLFKDNPFKLHLIEEKVTGPTATVYGCGTLVDLCQGPHLRHTGQIGGLKLLSNSSSLWRSSGAPETLQRVSGISFPTTELLRVWEAWREEAELRDHRRIGKEQELFFFHELSPGSCFFLPRGTRVYNALVAFIRAEYAHRGFSEVKTPTLFSTKLWEQSGHWEHYQEDMFAVQPPGSDRPPSSQSDDSTRHITDTLALKPMNCPAHCLMFAHRPRSWRELPLRLADFGALHRAEASGGLGGLTRLRCFQQDDAHIFCTTDQLEAEIQSCLDFLRSVYAVLGFSFRLALSTRPSGFLGDPCLWDQAEQVLKQALKEFGEPWDLNSGDGAFYGPKIDVHLHDALGRPHQCGTIQLDFQLPLRFDLQYKGQAGALERPVLIHRAVLGSVERLLGVLAESCGGKWPLWLSPFQVVVIPVGSEQEEYAKEAQQSLRAAGLVSDLDADSGLTLSRRIRRAQLAHYNFQFVVGQKEQSKRTVNIRTRDNRRLGEWDLPEAVQRLVELQNTRVPNAEEIF [TARS2] | 0.0817 | -0.134 | 51.4 | 50.8 | -1.35 | -0.229 |
| MEHVTEGSWESLPVPLHPQVLGALRELGFPYMTPVQSATIPLFMRNKDVAAEAVTGSGKTLAFVIPILEILLRREEKLKKSQVGAIIITPTRELAIQIDEVLSHFTKHFPEFSQILWIGGRNPGEDVERFKQQGGNIIVATPGRLEDMFRRKAEGLDLASCVRSLDVLVLDEADRLLDMGFEASINTILEFLPKQRRTGLFSATQTQEVENLVRAGLRNPVRVSVKEKGVAASSAQKTPSRLENYYMVCKADEKFNQLVHFLRNHKQEKHLVFFSTCACVEYYGKALEVLVKGVKIMCIHGKMKYKRNKIFMEFRKLQSGILVCTDVMARGIDIPEVNWVLQYDPPSNASAFVHRCGRTARIGHGGSALVFLLPMEESYINFLAINQKCPLQEMKPQRNTADLLPKLKSMALADRAVFEKGMKAFVSYVQAYAKHECNLIFRLKDLDFASLARGFALLRMPKMPELRGKQFPDFVPVDVNTDTIPFKDKIREKQRQKLLEQQRREKTENEGRRKFIKNKAWSKQKAKKEKKKKMNEKRKREEGSDIEDEDMEELLNDTRLLKKLKKGKITEEEFEKGLLTTGKRTIKTVDLGISDLEDDC [DDX55] | -1.07 | 0.392 | 49.2 | 50.7 | 2.22 | 3.29 |
